From paper PMC9458464, “The BAF A12T mutation disrupts lamin A/C interaction, impairing robust repair of nuclear envelope ruptures in Nestor–Guillermo progeria syndrome cells” (Nucleic Acids Research, 2022)
Substitutions are numbered along the chain they refer to. Names and notes keep the numbering of the source.

T1: BAF WT (barrier-to-autointegration factor, purified cysteine-free construct) (human, UniProt O75531 1-89, M1G | C67A | C77A | C80A | C85A)
T1 sequence: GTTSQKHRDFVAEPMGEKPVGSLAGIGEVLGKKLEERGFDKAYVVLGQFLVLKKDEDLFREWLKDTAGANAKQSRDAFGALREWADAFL

T2: BAF A12T (barrier-to-autointegration factor A12T, purified cysteine-free construct) (human, UniProt O75531 1-89, M1G | A12T | C67A | C77A | C80A | C85A)
T2 sequence: T1 sequence with A12T

T3: lamin A/C Ig-fold domain (aa 411-566) (human, UniProt P02545 411-566)
T3 construct: human lamin A/C fragment from aa 411 to aa 566 (Ig-fold domain); 15N-labelled (grown in M9) for the NMR experiments; also called Igfold domain of lamin A/C; source: E. coli BL21* (DE3), purified (glutathione beads, thrombin cleavage, gel filtration)
T3 sequence (looked up): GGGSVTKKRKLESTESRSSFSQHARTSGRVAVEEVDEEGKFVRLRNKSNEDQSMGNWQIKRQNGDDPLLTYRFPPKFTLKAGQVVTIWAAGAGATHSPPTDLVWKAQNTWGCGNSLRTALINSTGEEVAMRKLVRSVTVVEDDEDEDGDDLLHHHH

B1: lamin A/C Ig-fold domain (aa 411-566) (domain or fragment)
chain: T3 sequence (looked up)
B2: BAF WT (barrier-to-autointegration factor, purified cysteine-free construct) (natural protein, human, UniProt O75531 1-89, looked up)
chain: T1 sequence
notes: human barrier-to-autointegration factor (BAF, 89 amino acids); after tag cleavage the first residue is G instead of M; gene synthesized by Genscript in pETM13; also called BAF WT dimer; not shown: His8, N-terminal, cleaved
B3: BAF A12T (barrier-to-autointegration factor A12T, purified cysteine-free construct) (natural protein, human, UniProt O75531 1-89, looked up)
chain: T1 sequence with A12T
notes: human barrier-to-autointegration factor (BAF, 89 amino acids); made by mutagenesis of the BAF WT expression vector (all cysteines to alanine, M1G after tag cleavage) with the NGPS mutation A12T; PDB 6GHD holds the parent (BAF WT); PDB 7Z21 holds this mutant; also called BAF A12T dimer; not shown: His8, N-terminal, cleaved

What was measured:
[1] = biological target: T1, BAF WT (barrier-to-autointegration …); experiment: ITC
[2] = biological target: T2, BAF A12T (barrier-to-autointegration …); experiment: ITC
[3] = biological target: T1, BAF WT (barrier-to-autointegration …); experiment: ITC; experiment 2
[4] = biological target: T2, BAF A12T (barrier-to-autointegration …); experiment: ITC; experiment 2
[5] = biological target: T1, BAF WT (barrier-to-autointegration …); experiment: ITC; experiment 1
[6] = biological target: T2, BAF A12T (barrier-to-autointegration …); experiment: ITC; experiment 1
[7] = biological target: T3, lamin A/C Ig-fold domain (aa 411-566); experiment: ITC; VP-ITC; 100 or 200 uM lamin A/C Ig-fold in the syringe, 20 uM BAF WT or 40 uM BAF A12T in the cell; 50 mM Hepes pH 7.4, 150 mM NaCl, 288 K; stoichiometry set to 0.5 in the fit; each experiment done twice; details: both partners purified
[8] = biological target: T3, lamin A/C Ig-fold domain (aa 411-566); experiment: NMR titration; 2D 1H-15N HSQC of 15N-labelled lamin A/C Ig-fold (80 uM; 160 uM in one sample) with unlabelled BAF at ratios 1:1 and 1:2; 50 mM HEPES pH 7.4, 150 mM NaCl, 293 K; peak intensity ratios I/Io; details: both partners purified
[9] = biological target: the molecule itself; experiment: crystal structure; BAF A12T-lamin A/C Ig-fold complex recovered after ITC (50 mM Hepes pH 7.4, 150 mM NaCl), about 20 mg/ml; sitting drop, 0.1 M bicine pH 9, 3 M ammonium sulfate; 1.6 A

Binder | Kd [1] | Kd [2] | Kd [3] | Kd [4] | Kd [5] | Kd [6] | Kd [7] | percent of the initial NMR signals of the Ig-fold left at 1:1 ratio [8] | percent of the initial NMR signals of the Ig-fold left at 1:2 ratio [8] | decrease of NMR signal intensity of the Ig-fold at 1:1 ratio [8] | decrease of NMR signal intensity of the Ig-fold at 1:2 ratio [8] | stoichiometry N [9]
B1 | 2.3 µM | 24 µM | 3.1 µM | 42 µM | 2.3 µM | 24 µM | – | – | – | – | – | –
B2 | – | – | – | – | – | – | 2.7 ± 1.2 µM | 27% | 4% | – | – | –
B3 | – | – | – | – | – | – | 33 ± 4 µM | – | – | 43% | 66% | 2
